Test results from patent US20060024289.
Values joined by “and” are separate entries in the source; they are usually repeats but may differ in a detail not shown here. Identical values can stand only once.

T1: Ac-RRVR-AMC
T1 sequence: RRVR

T2: Ac-IEPD-AMC
T2 sequence: XIEPDX

T3: extracellular domain of VEGF-R2 (Flk1) fused to the Fc domain of mouse IgG
T3 chain: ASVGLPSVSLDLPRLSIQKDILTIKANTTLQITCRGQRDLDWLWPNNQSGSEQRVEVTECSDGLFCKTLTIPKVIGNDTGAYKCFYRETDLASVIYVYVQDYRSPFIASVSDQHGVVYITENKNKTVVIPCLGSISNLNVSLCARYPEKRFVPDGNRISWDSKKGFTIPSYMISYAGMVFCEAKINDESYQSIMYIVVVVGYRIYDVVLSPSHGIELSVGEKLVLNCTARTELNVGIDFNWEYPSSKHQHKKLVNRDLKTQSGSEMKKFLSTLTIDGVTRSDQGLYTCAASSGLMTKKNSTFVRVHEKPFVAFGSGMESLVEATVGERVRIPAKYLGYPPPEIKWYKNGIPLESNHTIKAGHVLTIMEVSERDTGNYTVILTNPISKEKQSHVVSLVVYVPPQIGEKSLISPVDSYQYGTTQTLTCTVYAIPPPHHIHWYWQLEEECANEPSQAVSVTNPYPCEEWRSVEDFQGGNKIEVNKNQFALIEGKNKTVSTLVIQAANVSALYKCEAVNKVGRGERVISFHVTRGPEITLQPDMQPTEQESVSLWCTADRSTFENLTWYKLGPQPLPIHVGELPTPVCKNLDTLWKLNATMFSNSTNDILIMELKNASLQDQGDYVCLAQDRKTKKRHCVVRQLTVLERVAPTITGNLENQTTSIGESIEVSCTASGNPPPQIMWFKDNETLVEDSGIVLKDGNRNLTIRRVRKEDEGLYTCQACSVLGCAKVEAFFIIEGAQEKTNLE

T4: Ac-RQAR-AMC
T4 chain: RQAR

T5: VEGF165, P15692
T5 chain: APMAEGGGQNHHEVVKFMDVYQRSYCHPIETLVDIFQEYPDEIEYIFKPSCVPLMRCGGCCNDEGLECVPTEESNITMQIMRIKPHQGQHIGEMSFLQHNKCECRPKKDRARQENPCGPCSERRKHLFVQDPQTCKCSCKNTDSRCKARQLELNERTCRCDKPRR

T6: Ac-IEFD-AMC
T6 chain: XIEFDX

T7: Ac-LEPD-AMC
T7 chain: XLEPDX

T8: Ac-LEFD-AMC
T8 chain: XLEFDX

T9: Ac-IETD-AMC
T9 chain: XIETDX

T10: Ac-IEPD-AMC
T10 chain: XIEPDX

T11: Ac-IKPD-AMC
T11 chain: XIKPDX

T12: Ac-IAPD-ACC
T12 chain: XIAPDX

B1: wild-type MT-SP1 protease domain (protein)
chain: VVGGTDADEGEWPWQVSLHALGQGHICGASLISPNWLVSAAHCYIDDRGFRYSDPTQWTAFLGLHDQSQRSAPGVQERRLKRIISHPFFNDFTFDYDIALLELEKPAEYSSMVRPICLPDASHVFPAGKAIWVTGWGHTQYGGTGALILQKGEIRVINQTTCENLLPQQITPRMMCVGFLSGGVDSCQGDSGGPLSSVEADGRIFQAGVVSWGDGCAQRNKPGVYTRLPLFRDWIKENTGV
B2: wild-type rat granzyme B (protein)
chain: IIGGHEAKPHSRPYMAYLQIMDEYSGSKKCGGFLIREDFVLTAAHCSGSKINVTLGAHNIKEQEKMQQIIPVVKIIPHPAYNSKTISNDIMLLKLKSKAKRSSAVKPLNLPRRNVKVKPGDVCYVAGWGKLGPMGKYSDTLQEVELTVQEDQKCESYLKNYFDKANEICAGDPKIKRASFRGDSGGPLVCKKVAAGIVSYGQNDGSTPRAFTKVSTFLSWIKKTMKK
B3: rat granzyme B I99A/N218A (protein)
chain: IIGGHEAKPHSRPYMAYLQIMDEYSGSKKCGGFLIREDFVLTAAHCSGSKINVTLGAHNIKEQEKMQQIIPVVKIIPHPAYNSKTASNDIMLLKLKSKAKRSSAVKPLNLPRRNVKVKPGDVCYVAGWGKLGPMGKYSDTLQEVELTVQEDQKCESYLKNYFDKANEICAGDPKIKRASFRGDSGGPLVCKKVAAGIVSYGQADGSTPRAFTKVSTFLSWIKKTMKKS

What was measured:
[1] = biological target: VEGF165 (UniProt P15692)
[2] = test system: T1, Ac-RRVR-AMC
[3] = test system: T2, Ac-IEPD-AMC
[4] = biological target: T3, extracellular domain of VEGF-R2 (Flk1) …
[5] = biological target: T4, Ac-RQAR-AMC
[6] = biological target: T5, VEGF165, P15692
[7] = biological target: T6, Ac-IEFD-AMC; test: Michaelis-Menten kinetics of fluorogenic tetrapeptide hydrolysis
[8] = biological target: T7, Ac-LEPD-AMC; test: as above
[9] = biological target: T8, Ac-LEFD-AMC; test: as above
[10] = biological target: T9, Ac-IETD-AMC; test: as above
[11] = biological target: T10, Ac-IEPD-AMC; test: as above
[12] = biological target: T11, Ac-IKPD-AMC; test: as above
[13] = biological target: T6, Ac-IEFD-AMC
[14] = biological target: T7, Ac-LEPD-AMC
[15] = biological target: T8, Ac-LEFD-AMC
[16] = biological target: T12, Ac-IAPD-ACC
[17] = biological target: T9, Ac-IETD-AMC
[18] = biological target: T10, Ac-IEPD-AMC
[19] = biological target: T11, Ac-IKPD-AMC

Row | Molecule | cleavage of purified VEGFR2-Fc (SDS-PAGE) [4] | Km [7] | Km [8] [µM] | Km [9] [µM] | Km [11] [µM] | kcat [13] | kcat/Km [13] [M⁻¹ s⁻¹] | ΔΔGT^‡ [13] [kcal/mol] | kcat/Km [14] [M⁻¹ s⁻¹] | ΔΔGT^‡ [14] [kcal/mol] | kcat [15] [s⁻¹] | kcat/Km [15] [M⁻¹ s⁻¹] | ΔΔGT^‡ [15] [kcal/mol] | in vitro cleavage of soluble Flk1-Fc (gel, FIG. 10) [4] | kcat [18] [s⁻¹] | kcat/Km [18] [M⁻¹ s⁻¹] | ΔΔGT^‡ [18] [kcal/mol] | other results
1 | MT-SP1 mutein CB152 (F99V/K224F) |  |  |  |  |  |  |  |  |  |  |  |  |  |  |  |  |  | cleavage of 5 µM VEGF165 by 100 nM protease, 37° C., five hours (SDS-PAGE, silver stain) [1]: while the more selective variant CB152 does not; preference of RRVR over RQAR substrate (ratio of kcat/Km) [2]: prefer RRVR to RQAR by greater than 8 fold
2 | rat granzyme B R192A |  |  |  |  |  |  |  |  |  |  |  |  |  |  |  |  |  | specificity constant (kcat/Km) [3]: 55 M⁻¹ s⁻¹
3 | B1 | The purified VEGFR2-Fc is efficiently cleaved by wild-type and mutant MT-SP1 ... None of the protease variants or wild-type cleave the Fc domain |  |  |  |  |  |  |  |  |  |  |  |  |  |  |  |  | cleavage of purified Flk1-Fc by 1 µM protease (SDS-PAGE, Edman sequencing) [4]: Purified VEGFR2-Fc is cleaved by wild-type and mutant MT-SP1 at the sequence RRVR/KEDE in the extracellular stalk region of the receptor; preference of RQAR over RRVR substrate (ratio of kcat/Km) [5]: 2 times; cleavage of 5 µM VEGF165 by 100 nM protease, 37° C., five hours (SDS-PAGE, silver stain) [6]: MT-SP1 efficiently cleaves VEGF^165 under the assay conditions
4 | B2 | The purified VEGFR2-Fc is efficiently cleaved by wild-type and mutant granzyme B ... None of the protease variants (wild-type or mutant) cleave the Fc domain | 150 µM and 153 µM | 1100 | 600 | 370 | 0.15 s⁻¹ and 0.154 s⁻¹ | 1000 | 0.71 | 88 | 2.18 | 0.0087 | 14 | 3.26 | Wild-type granzyme B and the listed muteins cleave the VEGFR-Fc receptor | 1.2 | 3300 | 0 | Km [10]: 250 µM; Km [12]: 1500 µM and 1600 µM; Kcat [13]: 0.15 s⁻¹; Kcat/Km [13]: 1000 M⁻¹ s⁻¹; Kcat [14]: 0.096 s⁻¹; Kcat/Km [14]: 87 M⁻¹ s⁻¹; kcat [14]: 0.096 s⁻¹; Kcat/Km [16]: 110 M⁻¹ s⁻¹; kcat/Km [16]: 110 M⁻¹ s⁻¹; Kcat [17]: 0.39 s⁻¹; Kcat/Km [17]: 1600 M⁻¹ s⁻¹; Kcat [18]: 1.2 s⁻¹; Kcat/Km [18]: 3300 M⁻¹ s⁻¹; Kcat [19]: 0.15 s⁻¹; Kcat/Km [19]: 99 M⁻¹ s⁻¹; kcat [19]: 0.15 s⁻¹; kcat/Km [19]: 99 M⁻¹ s⁻¹
5 | B3 | The purified VEGFR2-Fc is efficiently cleaved by wild-type and mutant granzyme B ... None of the protease variants (wild-type or mutant) cleave the Fc domain | 890 µM | > 2000 | 1300 | 2700 | 0.26 s⁻¹ | 290 | -1.33 | 1.3 | 1.92 | 0.047 | 37 | -0.09 | Wild-type granzyme B and the listed muteins cleave the VEGFR-Fc receptor | 0.087 | 32 | 0 | 
